First the molecules themselves.
T1: biotinylated Compound 1 (biotinylated CCR4 partial peptide) (human, also: biotinylated, site not given here)
T1 construct: Same peptide as in BSA-Compound 1
T1 peptide: DESIYSNYYLYESIPKPC

T2: BSA-Compound 1 (human CCR4 extracellular region peptide Compound 1 conjugated with BSA) (human, also: conjugated to BSA through SMCC, site not given here)
T2 construct: the claims speak of positions 13 to 29; ELISA antigen; also called CCR4 partial peptide
T2 peptide: DESIYSNYYLYESIPKPC

T3: human CC chemokine receptor 4 (CCR4) on CCR4/EL-4 cells (human, UniProt P51679 1-360)
T3 construct: also called hCCR4; human CCR4-high-expressing cell
T3 sequence: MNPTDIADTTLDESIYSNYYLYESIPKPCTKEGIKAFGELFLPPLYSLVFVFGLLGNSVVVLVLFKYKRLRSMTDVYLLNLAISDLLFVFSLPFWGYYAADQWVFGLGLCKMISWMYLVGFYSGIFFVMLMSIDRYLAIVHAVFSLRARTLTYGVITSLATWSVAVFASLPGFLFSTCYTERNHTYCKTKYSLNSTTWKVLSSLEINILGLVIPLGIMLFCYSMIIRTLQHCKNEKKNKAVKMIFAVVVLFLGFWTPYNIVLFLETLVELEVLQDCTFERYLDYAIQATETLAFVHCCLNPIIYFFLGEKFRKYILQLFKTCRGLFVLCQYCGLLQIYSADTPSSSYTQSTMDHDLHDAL

B1: anti-CCR4 CDR-grafted antibody Ga10LV0 (antibody, human IgG1, V domains shown)
VH: EVQLVESGGDLVQPGRSLRLSCAASGFIFSNYGMSWVRQAPGKGLEWVATISSASTYSYYPDSVKGRFTISRDNAKNSLYLQMNSLRVEDTALYYCARHSDGNFAFGYWGQGTLVTVSS
VL: DIVMTQSPLSLPVTPGEPASISCRSSRNIVHINGDTYLEWYLQKPGQSPQLLIYKVSNRFSGVPDRFSGSGSGTDFTLKISRVEAEDVGVYYCFQGSLLPWTFGQGTKVEIK
notes: CDR alone grafted; Tested as COS-7 supernatant and as purified antibody from YB2/0; also called pKANTEX2160Ga10LV0; pKM2160Ga10LV0
B2: anti-CCR4 CDR-grafted antibody HV1LV1 (antibody, human IgG1, V domains shown)
VH: EVQLVESGGGLVQPGGSLRLSCAASGFIFSNYGMSWVRQAPGKGLEWVSTISSASTYSYYPDSVKGRFTISRDNSKNTLYLQMNSLRAEDTAVYYCARHSDGNFAFGYWGQGTLVTVSS
VL: DVVMTQSPLSLPVTPGEPASISCRSSRNIVHINGDTYLEWYLQKPGQSPQLLIYKVSNRFSGVPDRFSGSGSGTDFTLKISRVEAEDVGVYYCFQGSLLPWTFGQGTKVEIK
notes: Tested as COS-7 culture supernatant only; also called pKM2160HV1LV1
B3: anti-CCR4 CDR-grafted antibody HV0LV1 (antibody, human IgG1, V domains shown)
VH: EVQLVESGGGLVQPGGSLRLSCAASGFTFSNYGMSWVRQAPGKGLEWVSTISSASTYSYYPDSVKGRFTISRDNSKNTLYLQMNSLRAEDTAVYYCARHSDGNFAFGYWGQGTLVTVSS
VL: DVVMTQSPLSLPVTPGEPASISCRSSRNIVHINGDTYLEWYLQKPGQSPQLLIYKVSNRFSGVPDRFSGSGSGTDFTLKISRVEAEDVGVYYCFQGSLLPWTFGQGTKVEIK
notes: Tested as COS-7 culture supernatant only; also called pKM2160HV0LV1
B4: anti-CCR4 CDR-grafted antibody HV1LV2 (antibody, human IgG1, V domains shown)
VH: EVQLVESGGGLVQPGGSLRLSCAASGFIFSNYGMSWVRQAPGKGLEWVSTISSASTYSYYPDSVKGRFTISRDNSKNTLYLQMNSLRAEDTAVYYCARHSDGNFAFGYWGQGTLVTVSS
VL: DILMTQSPLSLPVTPGEPASISCRSSRNIVHINGDTYLEWYLQKPGQSPQLLIYKVSNRFSGVPDRFSGSGSGTDFTLKISRVEAEDVGVYYCFQGSLLPWTFGQGTKVEIK
notes: Tested as COS-7 culture supernatant only; also called pKM2160HV1LV2
B5: anti-CCR4 CDR-grafted antibody HV1LV0 (antibody, human IgG1, V domains shown)
VH: EVQLVESGGGLVQPGGSLRLSCAASGFIFSNYGMSWVRQAPGKGLEWVSTISSASTYSYYPDSVKGRFTISRDNSKNTLYLQMNSLRAEDTAVYYCARHSDGNFAFGYWGQGTLVTVSS
VL: DIVMTQSPLSLPVTPGEPASISCRSSRNIVHINGDTYLEWYLQKPGQSPQLLIYKVSNRFSGVPDRFSGSGSGTDFTLKISRVEAEDVGVYYCFQGSLLPWTFGQGTKVEIK
notes: Tested as COS-7 culture supernatant only; also called pKM2160HV1LV0
B6: anti-CCR4 CDR-grafted antibody Ga10LV2 (antibody, human IgG1, V domains shown)
VH: EVQLVESGGDLVQPGRSLRLSCAASGFIFSNYGMSWVRQAPGKGLEWVATISSASTYSYYPDSVKGRFTISRDNAKNSLYLQMNSLRVEDTALYYCARHSDGNFAFGYWGQGTLVTVSS
VL: DILMTQSPLSLPVTPGEPASISCRSSRNIVHINGDTYLEWYLQKPGQSPQLLIYKVSNRFSGVPDRFSGSGSGTDFTLKISRVEAEDVGVYYCFQGSLLPWTFGQGTKVEIK
notes: Tested as COS-7 culture supernatant only; also called pKM2160Ga10LV2
B7: anti-CCR4 CDR-grafted antibody HV0LV0 (antibody, human IgG1, V domains shown)
VH: EVQLVESGGGLVQPGGSLRLSCAASGFTFSNYGMSWVRQAPGKGLEWVSTISSASTYSYYPDSVKGRFTISRDNSKNTLYLQMNSLRAEDTAVYYCARHSDGNFAFGYWGQGTLVTVSS
VL: DIVMTQSPLSLPVTPGEPASISCRSSRNIVHINGDTYLEWYLQKPGQSPQLLIYKVSNRFSGVPDRFSGSGSGTDFTLKISRVEAEDVGVYYCFQGSLLPWTFGQGTKVEIK
notes: Tested as COS-7 culture supernatant only; also called pKM2160HV0LV0
B8: anti-CCR4 CDR-grafted antibody HV1LV3 (antibody, human IgG1, V domains shown)
VH: EVQLVESGGGLVQPGGSLRLSCAASGFIFSNYGMSWVRQAPGKGLEWVSTISSASTYSYYPDSVKGRFTISRDNSKNTLYLQMNSLRAEDTAVYYCARHSDGNFAFGYWGQGTLVTVSS
VL: DVLMTQSPLSLPVTPGEPASISCRSSRNIVHINGDTYLEWYLQKPGQSPQLLIYKVSNRFSGVPDRFSGSGSGTDFTLKISRVEAEDVGVYYCFQGSLLPWTFGQGTKVEIK
notes: Tested as COS-7 culture supernatant only; also called pKM2160HV1LV3
B9: anti-CCR4 CDR-grafted antibody HV0LV3 (antibody, human IgG1, V domains shown)
VH: EVQLVESGGGLVQPGGSLRLSCAASGFTFSNYGMSWVRQAPGKGLEWVSTISSASTYSYYPDSVKGRFTISRDNSKNTLYLQMNSLRAEDTAVYYCARHSDGNFAFGYWGQGTLVTVSS
VL: DVLMTQSPLSLPVTPGEPASISCRSSRNIVHINGDTYLEWYLQKPGQSPQLLIYKVSNRFSGVPDRFSGSGSGTDFTLKISRVEAEDVGVYYCFQGSLLPWTFGQGTKVEIK
notes: Tested as COS-7 culture supernatant only; also called pKM2160HV0LV3
B10: anti-CCR4 CDR-grafted antibody HV3LV0 (antibody, human IgG1, V domains shown)
VH: EVQLVESGGGLVQPGGSLRLSCAASGFIFSNYGMSWVRQAPGKGLEWVSTISSASTYSYYPDSVKGRFTISRDNSKNTLYLQMNSLRAEDTAVYYCGRHSDGNFAFGYWGQGTLVTVSS
VL: DIVMTQSPLSLPVTPGEPASISCRSSRNIVHINGDTYLEWYLQKPGQSPQLLIYKVSNRFSGVPDRFSGSGSGTDFTLKISRVEAEDVGVYYCFQGSLLPWTFGQGTKVEIK
notes: Tested as COS-7 culture supernatant only; also called pKM2160HV3LV0
B11: anti-CCR4 CDR-grafted antibody HV2LV0 (antibody, human IgG1, V domains shown)
VH: EVQLVESGGGLVQPGGSLRLSCAASGFTFSNYGMSWVRQAPGKGLEWVSTISSASTYSYYPDSVKGRFTISRDNSKNTLYLQMNSLRAEDTAVYYCGRHSDGNFAFGYWGQGTLVTVSS
VL: DIVMTQSPLSLPVTPGEPASISCRSSRNIVHINGDTYLEWYLQKPGQSPQLLIYKVSNRFSGVPDRFSGSGSGTDFTLKISRVEAEDVGVYYCFQGSLLPWTFGQGTKVEIK
notes: Tested as COS-7 culture supernatant only; also called pKM2160HV2LV0
B12: anti-CCR4 CDR-grafted antibody HV0LV2 (antibody, human IgG1, V domains shown)
VH: EVQLVESGGGLVQPGGSLRLSCAASGFTFSNYGMSWVRQAPGKGLEWVSTISSASTYSYYPDSVKGRFTISRDNSKNTLYLQMNSLRAEDTAVYYCARHSDGNFAFGYWGQGTLVTVSS
VL: DILMTQSPLSLPVTPGEPASISCRSSRNIVHINGDTYLEWYLQKPGQSPQLLIYKVSNRFSGVPDRFSGSGSGTDFTLKISRVEAEDVGVYYCFQGSLLPWTFGQGTKVEIK
notes: Tested as COS-7 culture supernatant only; also called pKM2160HV0LV2
B13: anti-CCR4 CDR-grafted antibody HV2LV3 (antibody, human IgG1, V domains shown)
VH: EVQLVESGGGLVQPGGSLRLSCAASGFTFSNYGMSWVRQAPGKGLEWVSTISSASTYSYYPDSVKGRFTISRDNSKNTLYLQMNSLRAEDTAVYYCGRHSDGNFAFGYWGQGTLVTVSS
VL: DVLMTQSPLSLPVTPGEPASISCRSSRNIVHINGDTYLEWYLQKPGQSPQLLIYKVSNRFSGVPDRFSGSGSGTDFTLKISRVEAEDVGVYYCFQGSLLPWTFGQGTKVEIK
notes: Tested as COS-7 culture supernatant only; also called pKM2160HV2LV3
B14: anti-CCR4 CDR-grafted antibody HV3LV3 (antibody, human IgG1, V domains shown)
VH: EVQLVESGGGLVQPGGSLRLSCAASGFIFSNYGMSWVRQAPGKGLEWVSTISSASTYSYYPDSVKGRFTISRDNSKNTLYLQMNSLRAEDTAVYYCGRHSDGNFAFGYWGQGTLVTVSS
VL: DVLMTQSPLSLPVTPGEPASISCRSSRNIVHINGDTYLEWYLQKPGQSPQLLIYKVSNRFSGVPDRFSGSGSGTDFTLKISRVEAEDVGVYYCFQGSLLPWTFGQGTKVEIK
notes: Tested as COS-7 culture supernatant only; also called pKM2160HV3LV 3

Ends that are not written are not given here.

One experiment concerns the target T1, biotinylated Compound 1 (biotinylated …). Kind of experiment: BIAcore 2000, biotinylated Compound 1 on sensor tip SA, antibody at 4 µg/ml. How it is done:
In order to measure the binding activity in more detail, the binding activity of various purified antibodies was measured using BIAcore 2000 (manufactured by BIACORE) as follows. In this case, HBS-EP (manufactured by BIACORE) was used as the buffer for diluting samples and for the measurement. First, 5 μl of 0.05 μg/ml solution of Compound 1 as a biotinylated CCR4 partial peptide was added to a sensor tip SA (manufactured by BIACORE) at a flow rate of 5 μl/minute and immobilized on the sensor tip.
To the prepared biotinylated compound 1 -immobilized sensor tip, 20 μl of 4 μg/ml solution of each of the purified antibodies was added at a flow rate of 5 μl/minute, and after completion of the addition, the dissociation reaction was monitored for 4 minutes and then the sensor tip surface was regenerated by adding 5 μl of 10 mM HCl twice. In this way, a binding reaction curve (sensorgram) for Compound 1 was obtained.
As to B1, the binding result is listed as “binds”.

The next experiment deals with T2, BSA-Compound 1 (human CCR4 …). Kind of experiment: ELISA on BSA-Compound 1, COS-7 culture supernatant. How it is done:
Into a 96 well ELISA plate (manufactured by Greiner), 0.05 μg/ml of the prepared conjugate was dispensed in at 50 μl/well and allowed to stand at 4° C. overnight for adsorption. After washing with PBS, PBS containing 1% BSA (hereinafter referred to as “1% BSA-PBS”) was added thereto at 100 μl/well and allowed to react at room temperature for 1 hour to block the remaining active groups. After washing each well with PBS containing 0.05% Tween 20 (hereinafter referred to as “Tween-PBS”), a culture supernatant of the transformant was added at 50 μl/well and allowed to react at room temperature for 1 hour. After the reaction and subsequent washing of each well with Tween-PBS, a peroxidase-labeled goat anti-human IgG(γ) antibody solution (manufactured by American Qualex) diluted 6,000 folds with 1% BSA-PBS was added as a secondary antibody solution in 50 μl/well portions and allowed to react at room temperature for 1 hour After the reaction and subsequent washing with Tween-PBS, an ABTS substrate solution (a solution prepared by dissolving 0.55 g of […] ammonium in 1 liter of 0.1 M citrate buffer (pH 4.2) and adding 1 μl/ml hydrogen peroxide just before use) was added at 50 μl/well to develop color, and the reaction was stopped 20 minutes thereafter by adding 5% SDS solution at 50 μl/well. Thereafter, absorbance at 415 nm was measured.
(In general: An ELISA detects its analyte on a solid surface through an enzyme-linked reagent.)
Take B1: the binding result was “binds”.

For B2, the binding result is listed as “binds”.

B3: the binding result is “binds”.

For the molecule B4, the binding result is reported as “binds”.

In the case of B5, the binding result is given as “binds”.

As to B6, the binding result is on record as “binds”.

As to B7, the binding result is “binds”.

Consider B8, for which the binding result is given as “binds”.

For the molecule B9, the binding result is recorded as “binds”.

For the molecule B10, the binding result is “binds”.

With B11, the binding result was “binds”.

B12: the binding result is on record as “binds”.

Take B13: the binding result was “binds”.

As to B14, the binding result is listed as “binds”.

A further experiment deals with T3, human CC chemokine receptor 4 (CCR4) on …. Description: flow cytometry on CCR4/EL-4 cells, antibody at 10 µg/ml. As to the method: Into a 96 well plate, 2×10⁵ or more of CCR4/EL-4 cells, CCR4-high-expressing cells obtained in Reference Example 3, were dispensed. An antibody solution was prepared by diluting each of the purified antibodies and a human immunoglobulin (manufactured by Welfide) for preventing nonspecific staining to give concentrations of 10 μg/ml and 3.75 mg/ml, respectively, with a buffer for FACS, and the antibody solution was added at 100 μl/well and allowed to react for 30 minutes in ice. As a negative control, 10 μg/ml of an anti-human IL-5 receptor a chain antibody (WO 97/10354) was used. After washing twice with 200 μl/well of the buffer for FACS, a PE-labeled anti-human IgG antibody (manufactured by Coulter) diluted 100 times was added at 50 μl/well. After the reaction in ice under shading and subsequent washing three times with 200 μl/well of the buffer for FACS, the reaction product was suspended in 500 μl of the buffer for FACS and the fluorescence intensity was measured using a flow cytometer.
Background: A flow cytometer gives signals particle by particle.
On to B1, for which the binding result was “binds”.

The record behind these values is US20030175273A1 (Kyowa Kirin, published 2003).
